US20170044241A1 (VYBION, published 2017)
No end group written: not given here. biotin = biotin label at C-terminus

What was measured:
[1] = biological target: T1, biotinylated Huntingtin peptide Happ(-) (PGPAVAEEPLHRPG-biotin); assay: ELISA, purified intrabody on poly-proline peptides (FIG. 1C)
T1 construct: also called second biotinylated proline rich peptide; carboxy derived Huntington's peptide
T1 peptide: PGPAVAEEPLHRPG-biotin
Description: (§1) ELISA was performed to determine the binding activity of isolated scFv clones against biotinylated Huntingtin peptide designated Happ(+) ([…]-biotin (SEQ ID NO: 26), and a second biotinylated Huntingtin peptide designated Happ(−) ([…]-biotin (SEQ ID NO: 28). All incubations except antigen coating were carried out at room temperature. Microtiter plates (Nuc) were coated with 100 μl of a biotinlyated Huntingtin peptide solution (2 μg/ml in 50 mM NaHCO3 buffer, pH 9.6) and incubated overnight at 4° C. The plates were washed 3 times with 200 μl of 1×TBS (50 mM Tris-Cl, 150 mM NaCl pH 8.0) and blocked with 100 μl of 2% milk in TBS for 2 hr. Plates were washed once with 200 μl of 1×TBS. In some experiments, preblocked Strepavidin coated plates (Pierce) were used to bind biotinylated peptide. Cell extracts (50 μl) or purified StrepII tagged Intrabodies were added to the antigen-coated blocked plates and incubated for 1.5 hr. Extracts of E. coli cultures from individual colonies selected by panning after overnight induction with IPTG were prepared by lysis in B-Per (Pierce) as described by the manufacturer and centrifuged at 10,000×g for 10 minutes to remove cell wall and debris. Supernatants from these extracts were used directly or diluted with TBS (1:2, 1:4) prior to use. […] The optical density (OD) was measured at 405 nm on a spectrophotometer and the level of scFv binding determined. […]

[2] = biological target: T2, biotinylated Huntingtin peptide Happ(+) (RPQLPQPPPQAQPRGGGSK-biotin); assay: as above
T2 construct: also called biotinylated PRP; poly-proline peptide
T2 peptide: RPQLPQPPPQAQPRGGGSK-biotin
Description: as §1

[3] = biological target: T2, biotinylated Huntingtin peptide Happ(+) …; assay: ELISA, purified scFv on biotinylated peptide
Description: as §1

[4] = biological target: T1, biotinylated Huntingtin peptide Happ(-) …; assay: ELISA, purified intrabody on poly-proline peptides (FIG. 1A)
Description: as §1

[5] = biological target: T1, biotinylated Huntingtin peptide Happ(-) …; assay: ELISA, H8 in E. coli lysate against purified H8; peptide not given
[6] = biological target: T2, biotinylated Huntingtin peptide Happ(+) …; assay: as above
[7] = biological target: T1, biotinylated Huntingtin peptide Happ(-) …; assay: ELISA, purified intrabody on poly-proline peptides (FIG. 1B)
Description: as §1

[8] = biological target: T2, biotinylated Huntingtin peptide Happ(+) …; assay: as above
Description: as §1

B1: E10 (scFv)
scFv: MAEVQLVVSGGGLVKPGGSMILSCAASGFTFSNYSMNWVRQAPGKGLEWVSSISSSSEYIYYADFVKGRFTISRDNAKNSLYLQMDSLRAEDTAVYYCAITGCECTWGRGTLVTVSSGGGGSGGGGSGGGGSQSVLTQPASVSGSPGQSITISCAGTSSDVGGYNYVSWYQQHPGKAPKLMIYEDSKRPSGVSNRFSGSKSGNTASLTISGLRAEDEADYYCSCIRGLKAAYFGGGTKLAVLGAAAEQKLIS
notes: Single chain intrabody; purified with a carboxy terminal StrepII tag for the ELISA; not shown: carboxy terminal StrepII tag of the purified form (pET24)
[1]
  binding result: binds
[2]
  binding result: binds

B2: INT41 (scFv)
scFv: MAEVQLVVSGGGLVKPGGSMILSCAASGFTFSNYSMNWVRQAPGKGLEWVSSISSSSEYIYYADFVKGRFTISRDNAKNSLYLQMDSLRAEDTAVYYCAWPGYRKAWGRGTLVTVSSGGGGSGGGGSGGGGSQSVLTQPASVSGSPGQSITISCAGTSSDVGGYNYVSWYQQHPGKAPKLMIYEDSKRPSGVSNRFSGSKSGNTASLTISGLRAEDEADYYCSYCASKGHWLFGGGTKLAVLGAAAEQKLIS
notes: Single chain intrabody (VH-linker-VL) from the T3 scFv library; Purified from E. coli with a carboxy terminal StrepII tag for the ELISA; also called INT41 intrabody; not shown: carboxy terminal StrepII tag of the purified form (pET24)
[3]
  binding result: binds
[4]
  binding result: binds

B3: H8 (scFv)
scFv: MAEVQLVVSGGGLVKPGGSMILSCAASGFTFSNYSMNWVRQAPGKGLEWVSSISSSSEYIYYADFVKGRFTISRDNAKNSLYLQMDSLRAEDTAVYYCAAAVCNGRPDTWGRGTLVTVSSGGGGSGGGGSGGGGSQSVLTQPASVSGSPGQSITISCAGTSSDVGGYNYVSWYQQHPGKAPKLMIYEDSKRPSGVSNRFSGSKSGNTASLTISGLRAEDEADYYCGYSLLPVLFGGGTKLAVLGAAAEQKLIS
notes: Single chain intrabody; tested purified (StrepII tag) and also in E. coli lysate form; not shown: carboxy terminal StrepII tag of the purified form (pET24)
[5]
  fold signal, lysate form against purified form: 3 times
[6]
  fold signal, lysate form against purified form: 3 times

B4: A2 (scFv)
scFv: MAEVQLVVSGGGLVKPGGSMILSCAASGFTFSNYSMNWVRQAPGKGLEWVSSISSSSEYIYYADFVKGRFTISRDNAKNSLYLQMDSLRAEDTAVYYCAHWPRLWRFPLWGRGTLVTVSSGGGGSGGGGSGGGGSQSVLTQPASVSGSPGQSITISCAGTSSDVGGYNYVSWYQQHPGKAPKLMIYEDSKRPSGVSNRFSGSKSGNTASLTISGLRAEDEADYYCVLNMHWANFGGGTKLAVLGAAAEQKLIS
notes: as for B1
[7]
  binding result: binds
[8]
  binding result: binds
